{"source": "patent US20220305128", "tested_on": "NF-kB (endogenous, A549 cells) (Homo sapiens)", "test": "cell_activity", "conditions": "A549 MTT, 1 pmol RNA transfected; 89% day 1; indirect readout"}
{"sequence": "AAAAAAAAAAGAUCUUGAAACUGUUUUAAGGUUGGCCGAUCUUAAAAAA [NF-kB aptamer, circular RNA]", "values": [{"measurement": "activity (% viability day 2)", "value": 86}]}
